The source of these data is patent publication US20210206856A1 (PANDION OPERATIONS, published 2021).

Numbering of substitutions follows the chain as printed. Like-named read-outs stand apart in the source and are kept apart here.

For experiment [1], the target named is T1, human MAdCAM expressed on cells (human, UniProt Q13477 19-382).
T1 construct: whole, on cells; also called MADCAM1
T1 sequence (looked up): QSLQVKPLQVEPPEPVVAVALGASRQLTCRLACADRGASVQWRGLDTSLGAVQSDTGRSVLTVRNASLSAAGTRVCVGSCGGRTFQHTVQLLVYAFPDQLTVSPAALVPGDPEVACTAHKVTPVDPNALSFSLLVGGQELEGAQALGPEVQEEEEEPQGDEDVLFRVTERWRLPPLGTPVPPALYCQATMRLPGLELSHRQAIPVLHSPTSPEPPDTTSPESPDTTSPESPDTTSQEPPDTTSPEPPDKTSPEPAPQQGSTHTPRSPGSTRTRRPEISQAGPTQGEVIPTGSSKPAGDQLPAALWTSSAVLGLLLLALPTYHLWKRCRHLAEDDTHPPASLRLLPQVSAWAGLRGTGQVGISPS
Kind of experiment: cell binding.

Experiment [2] addresses T2, mouse MAdCAM expressed on cells (mouse, UniProt Q61826 22-405).
T2 construct: whole, on cells
T2 sequence (looked up): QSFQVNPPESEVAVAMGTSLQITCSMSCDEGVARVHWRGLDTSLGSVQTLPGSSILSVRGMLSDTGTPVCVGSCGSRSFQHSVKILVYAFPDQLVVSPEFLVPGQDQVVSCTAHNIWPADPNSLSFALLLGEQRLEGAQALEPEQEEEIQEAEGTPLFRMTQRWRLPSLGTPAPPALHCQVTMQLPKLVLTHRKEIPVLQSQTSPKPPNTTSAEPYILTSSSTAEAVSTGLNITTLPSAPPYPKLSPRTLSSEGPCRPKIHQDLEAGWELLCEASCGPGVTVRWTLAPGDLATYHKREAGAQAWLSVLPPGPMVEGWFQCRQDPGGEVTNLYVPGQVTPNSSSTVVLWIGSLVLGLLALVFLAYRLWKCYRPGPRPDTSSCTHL
Kind of experiment: cell binding.

Experiment [3] deals with T3, recombinant mouse MAdCAM-1 (mouse, UniProt Q61826 22-365, limits assumed).
T3 construct: also called mMAdCAM-1; mouse MAdCAM-Fc
T3 sequence (looked up): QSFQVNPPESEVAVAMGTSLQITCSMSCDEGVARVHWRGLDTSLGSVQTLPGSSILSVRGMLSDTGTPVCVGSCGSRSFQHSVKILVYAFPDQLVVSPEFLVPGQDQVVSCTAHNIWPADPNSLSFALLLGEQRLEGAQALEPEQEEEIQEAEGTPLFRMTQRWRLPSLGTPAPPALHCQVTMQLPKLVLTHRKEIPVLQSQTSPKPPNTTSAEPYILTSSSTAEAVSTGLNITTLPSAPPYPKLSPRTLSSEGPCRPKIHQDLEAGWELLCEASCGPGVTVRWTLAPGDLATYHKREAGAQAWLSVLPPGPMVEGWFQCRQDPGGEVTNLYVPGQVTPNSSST
As to the kind of experiment: Octet. (Biolayer interferometry detects binding as a change in optical thickness at a sensor tip.)

Experiment [4] deals with T1, human MAdCAM expressed on cells. Kind of experiment: cell binding. This is another data set of the same source.
Experiment [5] addresses T2, mouse MAdCAM expressed on cells. As to the kind of experiment: cell binding. This is another data set of the same source.

B1: MAdCAM Antibody Table 1 Clone 7 (scFv)
scFv: QVQLVQSGAEVKKPGASVKVSCKASGYTFTGYHIHWVRQAPGQGLEWMGIINPSGGSTIYAQKFQGRVTMTRDTSTSTVYMELSSLRSEDTAVYYCAKDWSSWYLGPFDYWGQGTLVTVSSGGGGSGGGGSGGGGSGGGGSDIQMTQSPSSLSASVGDRVTITCRASQNISSSLNWYQQKPGKAPKLLIYAASSLQSGVPSRFSGSGSGTDFTLTISSLQPEDFATYYCQQSYTTPYTFGQGTKVEIK
With B1, the binding result in experiment [1] and in experiment [2] was “binds” throughout.

B2: MAdCAM Antibody Table 1 Clone 2 (scFv)
scFv: QVQLVQSGAEVKKPGASVKVSCKASGYPFIGYYLHWVRQAPGQGLEWMGIINPSGGSTSYAQKFQGRVTMTRDTSTSTVYMELSSLRSEDTAVYYCAREGRLSYGMDAWGQGTLVTVSSGGGGSGGGGSGGGGSGGGGSDIQMTQSPSSLSASVGDRVTITCRASQSISSYLAWYQQKPGKAPKLLIYGASTLESGVPSRFSGSGSGTDFTLTISSLQPEDFATYYCQQTWGPPFTFGQGTKLEIK
Consider B2, for which the binding result in experiment [1] and in experiment [2] was “binds” throughout.

B3: MAdCAM Antibody Table 1 Clone 3 (scFv)
scFv: B2 scFv with Y32Q
In the case of B3, the binding result in experiment [1] and in experiment [2] was “binds” in each case.

B4: MAdCAM Antibody Table 2 Clone 17 (antibody, human IgG1, V domains shown)
VH: QVQLVQSGAEVKKPGSSVKVSCKASGYTFTDYHIHWVRQAPGQGLEWMGGIVPRSGSTTYAQKFQGRVTITADESTSTAYMELSSLRSEDTAVYYCAKDESSGWYYFDYWGQGTLVTVSS
VL: DIVMTQSPLSLPVTPGEPASISCRSSQSLLHSNGYNYLDWYLQKPGQSPQLLIYSAYNRASGVPDRFSGSGSGTDFTLKISRVEAEDVGVYYCMQALQTPLTFGQGTKVEIK
Turning to B4, the binding result in experiment [3] is recorded as “no binding”; in experiment [4] it was “binds”; in experiment [5], “no binding”.

B5: MAdCAM Antibody Table 2 Clone 14 (antibody, human IgG1, V domains shown)
VH: QVQLVQSGAEVKKPGSSVKVSCKASGYTFTNYYMHWVRQAPGQGLEWMGGIIPIVDGVKYAQKFQGRVTITADESTSTAYMELSSLRSEDTAVYYCAKGQFTGNYYYGMDYWGQGTLVTVSS
VL: DIQMTQSPSSLSASVGDRVTITCQANQDISNYLNWYQQKPGKAPKLLIYRASKLEAGVPSRFSGSGSGTDFTLTISSLQPEDFATYYCQQSSEIPYSFGQGTKVEIK
On to B5, for which the binding result in experiment [3] and in experiment [5] was “no binding” in each case.

B6: MAdCAM Antibody Table 2 Clone 6 (antibody, human IgG1, V domains shown)
VH: EVQLLESGGGLVQPGGSLRLSCAASGFTFNNYAFHWVRQAPGKGLEWVSRINSYGTSTTYADSVKGRFTISRDNSKNTLYLQMNSLRAEDTAVYYCAREGPVAGYWYFDLWGQGTLVTVSS
VL: DIQMTQSPSSLSASVGDRVTITCRASQIIGTNLAWYQQKPGKAPKLLIYGASSLQSGVPSRFSGSGSGTDFTLTISSLQPEDFATYYCQQSYRLPFTFGQGTKVEIK
On to B6, for which the binding result is reported as “no binding” in experiment [3], “binds” in experiment [4] and “no binding” in experiment [5].

B7: MAdCAM Antibody Table 1 Clone 64 (scFv)
scFv: EVQLLESGGGLVKPGGSLRLSCAASGFAFSSHWMHWVRQAPGKGLEWVAGTSGSGESRDYADFVKGRFTISRDDSKNTLYLQMNSLKTEDTAVYYCARETYYYYYMDVWGKGTTVTVSSGGGGSGGGGSGGGGSGGGGSDIQMTQSPSSLSASVGDRVTITCRASQGISNYLAWYQQKPGKAPKLLIYDAANLEGGVPSRFSGSGSGTDFTLTISSLQPEDFATYYCQQSDIFPPTFGQGTKVEIK
On to B7, for which the binding result in experiment [1] and in experiment [2] was “binds” each time.

B8: MAdCAM Antibody Table 1 Clone 63 (scFv)
scFv: EVQLLESGGGLVKPGGSLRLSCAASGFTFDDYAMHWVRQAPGKGLEWVASITSSSAFIDYAASVKGRFTISRDDSKNTLYLQMNSLKTEDTAVYYCARERVDWNSYFDLWGRGTLVTVSSGGGGSGGGGSGGGGSGGGGSEIVMTQSPATLSVSPGERATLSCRASQGISNSYLAWYQQKPGQAPRLLIYGASTRATGIPARFSGSGSGTEFTLTISSLQSEDFAVYYCQQYYTYPPTFGPGTKVDIK
On to B8, for which the binding result in experiment [1] and in experiment [2] was “binds” throughout.

B9: MAdCAM Antibody Table 1 Clone 65 (scFv)
scFv: QVQLVQSGAEVKKPGASVKVSCKASGYTFTRHWIHWVRQAPGQGLEWMGWINVKTGGAGYAQKFQGRVTMTRDTSTSTVYMELSSLRSEDTAVYYCARESSGWYGTDVWGQGTTVTVSSGGGGSGGGGSGGGGSGGGGSDIQMTQSPSSLSASVGDRATITCRASQSISNYLAWYQQKPGKAPKLLIYAASSLQSGVPSRFSGSGSGTDFTLTISSLQPEDFATYYCQQSNSFPLTFGGGTKVEIK
In the case of B9, the binding result in experiment [1] and in experiment [2] was “binds” in each case.

B10: MAdCAM Antibody Table 1 Clone 11 (scFv)
scFv: QVQLVQSGAEVKKPGASVKVSCKASGYTFTTYYMHWVRQAPGQGLEWMGGFDPEDGETIYAQKFQGRVTMTRDTSTSTVYMELSSLRSEDTAVYYCARHAVAGAVGAGYYYYGMDVWGQGTMVTVSSGGGGSGGGGSGGGGSGGGGSDIQMTQSPSSLSASVGDRVTITCRASESISNWLAWYQQKPGKAPKLLIYAASTLQSGVPSRFSGSGSGTDFTLTISSLQPEDFATYYCQQSYSVPFTFGPGTKVDIK
Take B10: the binding result in experiment [1] is recorded as “binds”; in experiment [2], “no binding”.

B11: MAdCAM Antibody Table 1 Clone 5 (scFv)
scFv: EVQLLESGGGLVQPGGSLRLSCAASGFTFSSYWMHWVRQAPGKGLEWVSSISPGGSNIDYADSVKGRFTISRDNSKNTLYLQMNSLRAEDTAVYYCAREVQLSHYDYWGQGTLVTVSSGGGGSGGGGSGGGGSGGGGSDIQMTQSPSSLSASVGDRVTITCRASQGISNSLAWYQQKPGKAPKLLIYGASSLQSGVPSRFSGSGSGTDFTLTISSLQPEDFATYYCQQANSFPFTFGQGTKVEIK
On to B11, for which the binding result in experiment [1] and in experiment [2] was “binds” throughout.

B12: MAdCAM Antibody Table 2 Clone 28 (antibody, human IgG1, V domains shown)
VH: EVQLLESGGGLVQPGGSLRLSCAASGFTFSSYAMSWVRQAPGKGLEWVSYISSSSTYTNYADSVKGRFTISRDNSKNTLYLQMNSLRAEDTAVYYCARANSSSWYDWYFDLWGQGTLVTVSS
VL: not shown
B12: the binding result in experiment [3] and in experiment [5] was “no binding” each time.

B13: MAdCAM Antibody Table 1 Clone 66 (scFv)
scFv: EVQLLESGGGLVQPGGSLRLSCAASGFTFSSYWMHWVRQAPGKGLEWVAAISYDGKYKDYEDSVKGRFTISRDNSKNTLYLQMNSLRAEDTAVYYCARENKQWLASFDYWGQGTLVTVSSGGGGSGGGGSGGGGSGGGGSDIQMTQSPSSLSASVGDRVTITCQASQDISNFVNWYQQKPGKAPKLLIYAANLRSGVPSRFSGSGSGTDFTLTISSLQPEDFATYYCQQANSFPVTFGPGTKVDIK
As to B13, the binding result in experiment [1] and in experiment [2] was “binds” throughout.

B14: MAdCAM Antibody Table 1 Clone 4 (scFv)
scFv: QVQLVQSGAEVKKPGASVKVSCKASGGTFSSYAISWVRQAPGQGLEWMGSINPSGDTTSYAQKFQGRVTMTRDTSTSTVYMELSSLRSEDTAVYYCAKDKAQWLVGYFDYWGQGTLVTVSSGGGGSGGGGSGGGGSGGGGSDIQMTQSPSSLSASVGDRVTITCQASQDISNSLNWYQQKPGKAPKLLIYAASSLQSGVPSRFSGSGSGTDFTLTISSLQPEDFATYYCQQSYSSVITFGQGTKVEIK
Turning to B14, the binding result in experiment [1] and in experiment [2] was “binds” throughout.

B15: MAdCAM Antibody Table 2 Clone 20 (antibody, human IgG1, V domains shown)
VH: EVQLLESGGGLVQPGGSLRLSCAASGFTFSDSAMHWVRQAPGKGLEWVSAISGSGSTIYYADSVKGRFTISRDNSKNTLYLQMNSLRAEDTAVYYCVSDIAVAGHWYFDLWGRGTLVTVSS
VL: DIQMTQSPSSLSASVGDRVTITCRASQSISTFLNWYQQKPGKAPKLLIYAASRLEGGVPSRFSGSGSGTDFTLTISSLQPEDFATYYCQQANSFPLTFGPGTKVDIK
Turning to B15, the binding result in experiment [3] is given as “no binding”; in experiment [4], “binds”; in experiment [5] it was “no binding”.
